Data as given in patent publication US20180194839A1 (Novartis, published 2018).
Numbering of substitutions follows the chain as printed. In names and notes the source's numbering stands.

T1: recombinant mouse IL-17F (SEQ ID NO: 84) (mouse, UniProt Q7TNI7 29-161)
T1 construct: also called mIL-17F; rmIL-17F
T1 sequence: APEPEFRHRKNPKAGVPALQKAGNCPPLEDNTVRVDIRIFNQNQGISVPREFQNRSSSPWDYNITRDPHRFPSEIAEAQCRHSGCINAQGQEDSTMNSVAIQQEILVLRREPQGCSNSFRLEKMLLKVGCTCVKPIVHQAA

T2: recombinant human IL-17B (R&D Systems) (human, UniProt Q9UHF5 21-180)
T2 construct: also called huIL-17B; hu IL-17B
T2 sequence (looked up): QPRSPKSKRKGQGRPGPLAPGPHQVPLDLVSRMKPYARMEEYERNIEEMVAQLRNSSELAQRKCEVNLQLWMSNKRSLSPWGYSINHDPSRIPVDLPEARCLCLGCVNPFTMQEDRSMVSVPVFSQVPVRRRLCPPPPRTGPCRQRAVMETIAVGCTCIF

T3: recombinant human IL-17C (R&D Systems Cat#1234IL/CF) (human, UniProt Q9P0M4 19-197)
T3 construct: also called huIL-17C; hu IL-17C
T3 sequence (looked up): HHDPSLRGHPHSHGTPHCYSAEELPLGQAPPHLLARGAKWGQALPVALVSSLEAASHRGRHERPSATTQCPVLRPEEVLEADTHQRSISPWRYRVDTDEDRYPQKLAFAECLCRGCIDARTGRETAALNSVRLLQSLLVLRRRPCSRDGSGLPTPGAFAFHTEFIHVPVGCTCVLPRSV

T4: recombinant human IL-17D (R&D Systems Cat#1504IL/CF) (human, UniProt Q8TAD2 18-202, limits assumed)
T4 construct: also called huIL-17D; hu IL-17D
T4 sequence (looked up): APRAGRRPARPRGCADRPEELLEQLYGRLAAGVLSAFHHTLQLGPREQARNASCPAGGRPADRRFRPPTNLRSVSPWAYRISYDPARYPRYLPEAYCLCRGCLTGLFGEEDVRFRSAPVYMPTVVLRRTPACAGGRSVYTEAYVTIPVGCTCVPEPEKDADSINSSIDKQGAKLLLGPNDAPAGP

T5: recombinant human IL-17E (R&D Systems Cat#1258-IL/CF) (human, UniProt Q9H293 33-177)
T5 construct: also called huIL-17E; hu IL-17E
T5 sequence (looked up): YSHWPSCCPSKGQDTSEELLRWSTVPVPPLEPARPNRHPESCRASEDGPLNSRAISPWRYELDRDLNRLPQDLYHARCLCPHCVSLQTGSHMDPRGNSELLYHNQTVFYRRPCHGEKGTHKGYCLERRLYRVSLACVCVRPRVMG

T6: recombinant mouse IL-17A (SEQ ID NO: 83) (mouse, UniProt Q62386 26-158)
T6 sequence: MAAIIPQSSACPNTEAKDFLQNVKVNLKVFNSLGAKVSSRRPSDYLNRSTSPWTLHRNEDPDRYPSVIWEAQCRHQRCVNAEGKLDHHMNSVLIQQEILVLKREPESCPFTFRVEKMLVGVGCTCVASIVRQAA

T7: recombinant mouse IL-17A/F (R&D Systems Cat#5390-IL) (mouse, UniProt Q62386 26-158; Q7TNI7 29-161, limits assumed)
T7 sequence (looked up) 1: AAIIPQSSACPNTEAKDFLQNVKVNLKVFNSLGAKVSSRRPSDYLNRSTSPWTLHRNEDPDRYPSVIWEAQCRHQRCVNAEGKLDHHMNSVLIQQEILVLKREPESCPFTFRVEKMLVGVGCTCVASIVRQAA
T7 sequence (looked up) 2: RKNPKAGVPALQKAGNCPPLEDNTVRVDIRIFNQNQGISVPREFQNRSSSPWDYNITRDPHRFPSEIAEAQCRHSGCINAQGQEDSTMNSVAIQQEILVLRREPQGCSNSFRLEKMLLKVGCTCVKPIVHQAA

T8: recombinant rat IL-17A (SEQ ID NO: 85) (rat, UniProt Q61453 18-150)
T8 sequence: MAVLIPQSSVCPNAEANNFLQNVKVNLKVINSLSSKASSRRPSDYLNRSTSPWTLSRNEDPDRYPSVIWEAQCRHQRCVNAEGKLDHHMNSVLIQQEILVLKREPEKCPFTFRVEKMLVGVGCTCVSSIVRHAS

T9: recombinant mouse IL-6 (R&D Systems Cat#406-ML-010/CF) (mouse, UniProt P08505 25-211)
T9 construct: coated at 0.5 µg/ml; also called mIL-6
T9 sequence (looked up): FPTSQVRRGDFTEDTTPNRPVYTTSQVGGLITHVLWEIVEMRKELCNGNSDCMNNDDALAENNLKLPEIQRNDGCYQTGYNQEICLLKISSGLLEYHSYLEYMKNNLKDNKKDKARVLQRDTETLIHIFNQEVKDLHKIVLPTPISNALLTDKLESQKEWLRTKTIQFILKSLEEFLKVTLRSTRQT

T10: human IL-17A (construct not stated) (human, UniProt Q16552 24-155, limits assumed)
T10 construct: also called huIL-17A; human IL-17A biotin
T10 sequence: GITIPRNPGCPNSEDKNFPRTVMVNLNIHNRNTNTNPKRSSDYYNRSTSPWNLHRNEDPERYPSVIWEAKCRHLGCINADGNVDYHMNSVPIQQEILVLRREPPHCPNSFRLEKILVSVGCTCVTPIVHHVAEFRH

B1: XAB4 (antibody, human IgG1, kappa, V domains shown)
VH: EVQLVESGGDLVQPGGSLRLSCAASGFTFSSYWMSWVRQAPGKGLEWVANIKQDGSEKYYVDSVKGRFTISRDNAKNSLYLQMNSLRAEDTAVYYCARDRGSLYYWGQGTLVTVSS
VL: AIQLTQSPSSLSASVGDRVTITCRPSQGINWELAWYQQKPGKAPKLLIYDASSLEQGVPSRFSGSGSGTDFTLTISSLQPEDFATYYCQQFNSYPLTFGGGTKVEIKR
notes: also called MB435 N56Q
B2: XAB1 (antibody, human IgG1, kappa, V domains shown)
VH: B1 VH
VL: B1 VL with N30I, W31S, E32A, Q56N
notes: human IgG1/kappa monoclonal antibody; also called parental XAB1; XAB1 IgG

How the values were obtained:
[1] = molecular target: T1, recombinant mouse IL-17F (SEQ ID NO: 84); assay: ELISA, coated antigen
[2] = molecular target: T2, recombinant human IL-17B (R&D Systems); assay: ELISA, coated antigen
[3] = molecular target: T3, recombinant human IL-17C (R&D Systems …); assay: ELISA, coated antigen
[4] = molecular target: T4, recombinant human IL-17D (R&D Systems …); assay: ELISA, coated antigen
[5] = molecular target: T5, recombinant human IL-17E (R&D Systems …); assay: ELISA, coated antigen
[6] = molecular target: T6, recombinant mouse IL-17A (SEQ ID NO: 83); assay: cell-based or functional assay
[7] = molecular target: T7, recombinant mouse IL-17A/F (R&D Systems …); assay: cell-based or functional assay
[8] = molecular target: T1, recombinant mouse IL-17F (SEQ ID NO: 84); assay: cell-based or functional assay
[9] = molecular target: T8, recombinant rat IL-17A (SEQ ID NO: 85); assay: cell-based or functional assay
[10] = molecular target: T6, recombinant mouse IL-17A (SEQ ID NO: 83); assay: cell-based or functional assay; remark: listed apart in the source
[11] = molecular target: T9, recombinant mouse IL-6 (R&D Systems …); assay: ELISA, coated cytokine, Ab 10 µg/ml
[12] = molecular target: T10, human IL-17A (construct not stated); assay: competition ELISA: biotinylated huIL-17A pre-incubated with antibody, binding to coated huIL-17RA

Binder	binding result [1]	binding result [2]	binding result [3]	binding result [4]	binding result [5]	IC50, mouse KC secretion by CMT-93 cells; stimulus mIL-17A (1 nM) [6]	IC50, mouse KC secretion by CMT-93 cells; stimulus mIL-17A/F (3 nM) [7]	IC50, mouse KC secretion by CMT-93 cells; stimulus mIL-17F (30 nM) [8]	IC50, mouse KC secretion by CMT-93 cells; stimulus rIL-17A (1 nM) [9]	IC50, KC secretion by CMT-93 cells; stimulus mIL-17A (0.15 nM) [10]	O.D. [11]	IC50 [12]
B1	no binding (tested: 1 µg/ml)	no binding (tested: 1 µg/ml)	no binding (tested: 1 µg/ml)	no binding (tested: 1 µg/ml)	no binding (tested: 1 µg/ml)	0.0138 µM	0.0103 µM	> 10 µM	0.0067 µM	0.007 µM	0.031 O.D.	0.000321 µM
B2	no binding (tested: 1 µg/ml)	no binding (tested: 1 µg/ml)	no binding (tested: 1 µg/ml)	no binding (tested: 1 µg/ml)	no binding (tested: 1 µg/ml)	0.539 µM	> 1 µM	> 10 µM	0.467 µM	0.128 µM	0.038 O.D.	0.00083 µM
